The target in assay [1] is T1, HLA-A*02:01 / … complex (HLA-PEPTIDE target G8) on cells (human). The assay is described as follows: cell-based or functional assay.
The target of another assay is T2, CD3 on CD3+ Jurkat cells.
T2 construct: whole, on cells
Put plainly: flow cytometry, Format 41 bispecific on CD3+ Jurkat cells. A general note: In flow cytometry, cells or beads pass a laser one at a time.

Assay [2] addresses T1, HLA-A*02:01 / … complex (HLA-PEPTIDE …). The assay is described as follows: flow cytometry, Format 41 bispecific on A375 cells expressing ~300,000 copies of the pHLA 10mer.
In assay [3] the target is T3, biotinylated pHLA: HLA subtype A*02:01 complexed with … (HLA-PEPTIDE target G8) (human).
T3 construct: Soluble biotinylated pHLA coupled to U-PLEX linker 1 in the MSD assay; also called pHLA target
The assay is described as follows: MSD specificity ratio; threshold for selection of the 12 hit clones of Table 14. The method, then: G8 scFv screening was conducted using the Meso Scale Discovery U-PLEX Development Pack, 9-assay (cat. No. K15234N). The pack contains a 10-spot U-PLEX plate with 9 activated spots and 9 unique linkers as well as stop solution and read buffer. Biotinylated pHLA and biotinylated Protein L were each diluted to 33 nM using PBS+0.5% BSA. For each plate, 200 μL of the diluted pHLA or protein L was mixed with 300 μL of the corresponding Linker (see Table 9) and incubated at room temperature for 30 minutes.
Following the 30-minute incubation, 200 μL stop solution was added to each linker-pHLA solution. They were again incubated for 30 minutes at room temperature. These volumes were scaled based on the number of plates. The linker-pHLA solutions were then a 10× solution. They were then pooled together and further diluted with stop solution to the final 1× concentration. For example, for one plate with one linker, 600 μL pHLA would be diluted with 5.4 mL stop solution for the 1× concentration with a total volume of 6 mL. For one plate using 8 linkers, 600 μL of each linker was pooled to give 4.8 mL volume and 1.2 mL additional stop solution added for the final 6 mL volume. All volumes were scaled for additional plates. The pooled linker-pHLA solution was then coated onto the 10-spot plate as 50 μL/well, the plate sealed and stored at 4° C. overnight.
Samples, periplasmic extracts (PPE) were diluted 40-fold with PBS+1% BSA. The plate was washed 3 times with PBS+0.05% Tween and samples added as 50 μL/well. Plates were incubated at room temperature shaking for 2 hours. The plates were washed as before and 50 μL of 1 μg/mL SulfoTag anti-Myc tag (Abcam, ab206486) was added to each well. The anti-Myc tag antibody was sulfo-tag labeled using the MSD Gold Sulfo-tag NHS-Ester Conjugation kit (Meso Scale Discovery, R31AA-2) at a challenge ratio of 10. The plates were incubated for 1 hour shaking at room temperature. The plate wash was repeated and 150 μL 2× Read Buffer T (Meso Scale Discovery, R92TC-2) was added to all wells and the plate read immediately on the Quickplex SQ 120.

Where only a bound is given, the exact number is not on record here.

T2 sequence (P07766 23-207): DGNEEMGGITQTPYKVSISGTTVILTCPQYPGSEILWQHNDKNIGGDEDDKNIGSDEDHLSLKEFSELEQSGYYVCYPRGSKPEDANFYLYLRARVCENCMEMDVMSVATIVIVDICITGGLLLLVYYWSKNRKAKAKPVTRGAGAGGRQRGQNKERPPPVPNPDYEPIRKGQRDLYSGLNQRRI

B1: 5G06NT Format 41 diabody bispecific antibody (anti-G8 x anti-CD3) (bispecific antibody, V domains shown)
VH: EVQLLESGGGLVQPGGSLRLSCAASGFTFSDYYMSWVRQAPGKGLEWVSGINWPGGSTGYADSVKGRFTISRDNSKNTLYLQMNSLRAEDTAVYYCARVEQGYDIYYFYYMDVWGKGTTVTVSS
VL: DIQMTQSPSSLSASVGDRVTITCRASQSISSYLNWYQQKPGKAPKLLIYKASSLESGVPSRFSGSGSGTDFTLTISSLQPEDFATYYCQQSYSAPYTFGPGTKVDIK
As for B1, in assay [1], the “EC 50 (nM), cytotoxicity of A375 FoxE1 cells” value amounted to 0.08 nM. Besides, the values for the EC50 (in the assay with CD3 on CD3+ Jurkat cells; in assay [2]) were 41 nM and 0.11 nM, respectively.

B2: 1B03 (G8-1B03, Parent A) Format 41 diabody bispecific antibody (anti-G8 x anti-CD3) (bispecific antibody, V domains shown)
VH: EVQLLESGGGLVQPGGSLRLSCAASGFTFSDYYMSWVRQAPGKGLEWVSGINWNGGSTGYADSVKGRFTISRDNSKNTLYLQMNSLRAEDTAVYYCARVEQGYDIYYYYYMDVWGKGTTVTVSS
VL: DIQMTQSPSSLSASVGDRVTITCRASQSISSYLNWYQQKPGKAPKLLIYKASSLESGVPSRFSGSGSGTDFTLTISSLQPEDFATYYCQQSYSAPYTFGPGTKVDIK
For B2, the EC50 is 161 nM with CD3 on CD3+ Jurkat cells and 72.8 nM in assay [2].

B3: 05A08 scFv (scFv, V domains shown)
VH: EVQLLESGGGLVQPGGSLRLSCAASGYTFSDYYMSWVRQAPGKGLEWVGNINWNGGSTLYADSVKGRFTISRDNSKNTLYLQMNSLRAEDTAVYYCARVEQGYDNYYYYYMDVWGKGTTVTVSS
VL: DIQMTQSPSSLSASVGDRVTITCRASQSISSYLNWYQQKPGKAPKLLIYKASSLESGVPSRFSGSGSGTDFTLTISSLQPEDFATYYCQQSYSAPYTFGPGTKVDIK
notes: As m4: periplasmic-extract scFv
With B3, the target/OTLA specificity in assay [3] is above 50 ratio.

B4: 09D06 scFv (scFv, V domains shown)
VH: EVQLLESGGGLVQPGGSLRLSCAASGFTFSDYYMSWVRQAPGKGLEWVSGINWPGSSTGYADSVKGRFTISRDNSKNTLYLQMNSLRAEDTAVYYCARVRQGYDYYYYYYMDVWGKGTTVTVSS
VL: DIQMTQSPSSLSASVGDRVTITCRASQSISSYLNWYQQKPGKAPKLLIYKASSLESGVPSRFSGSGSGTDFTLTISSLQPEDFATYYCQQSYSAPYTFGPGTKVDIK
notes: as for B3
As to B4, the target/OTLA specificity in assay [3] was above 50 ratio.

B5: 05G09 scFv (scFv, V domains shown)
VH: EVQLLESGGGLVQPGGSLRLSCAASGFTFSDYYMSWVRQAPGKGLEWVGGINWPGGSTDYADSVKGRFTISRDNSKNTLYLQMNSLRAEDTAVYYCARVEQGYDIYYYYYMDVWGKGTTVTVSS
VL: DIQMTQSPSSLSASVGDRVTITCRASQSISSYLNWYQQKPGKAPKLLIYKASSLESGVPSRFSGSGSGTDFTLTISSLQPEDFATYYCQQSYSAPYTFGPGTKVDIK
notes: As m4; also called 0509
Turning to B5, the target/OTLA specificity in assay [3] is above 50 ratio.

B6: 05G06 scFv (scFv, V domains shown)
VH: EVQLLESGGGLVQPGGSLRLSCAASGFTFSDYYMSWVRQAPGKGLEWVSGINWPGGSTGYADSVKGRFNISRDNSKNTLYLQMNSLRAEDTAVYYCARVEQGYDIYYFYYMDVWGKGTTVTVSS
VL: DIQMTQSPSSLSASVGDRVTITCRASQSISSYLNWYQQKPGKAPKLLIYKASSLESGVPSRFSGSGSGTDFTLTISSLQPEDFATYYCQQSYSAPYTFGPGTKVDIK
notes: As m4: periplasmic-extract scFv; also called 04A11
B6: the target/OTLA specificity in assay [3] is above 50 ratio.

B7: 05C04 scFv (scFv, V domains shown)
VH: EVQLLESGGGLVQPGGSLRLSCAASGYTFSDYYMSWVRQAPGKGLEWVSGINWPGGYTGYADSVKGRFTISRDNSKNTLYLQMNSLRAEDTAVYYCARVEQGYDIYYYYYMDVWGKGTTVTVSS
VL: DIQMTQSPSSLSASVGDRVTITCRASQSISSYLNWYQQKPGKAPKLLIYKASSLESGVPSRFSGSGSGTDFTLTISSLQPEDFATYYCQQSYSAPYTFGPGTKVDIK
notes: as for B3
As for B7, the target/OTLA specificity in assay [3] is above 50 ratio.

B8: 05A03 scFv (scFv, V domains shown)
VH: EVQLLESGGGLVQPGGSLRLSCAASGYTFSDYYMSWVRQAPGKGLEWVSGINWPGGSTGYADSVKGRFTISRDNSKNTLYLQMNSLRAEDTAVYYCARVEQGYDIYYYYYMDVWGKGTTVTVSS
VL: DIQMTQSPSSLSASVGDRVTITCRASQSISSYLNWYQQKPGKAPKLLIYKASSLESGVPSRFSGSGSGTDFTLTISSLQPEDFATYYCQQSYSAPYTFGPGTKVDIK
notes: as for B3
On to B8, for which the target/OTLA specificity in assay [3] was above 50 ratio.

B9: 09G01 scFv (scFv, V domains shown)
VH: EVQLLESGGGLVQPGGSLRLSCAASGFTFSDYYMSWVRQAPGKGLEWVSVINWPGSSTGYADSVKGRFTISRDNSKNTLYLQMNSLRAEDTAVYYCARVEQGYDIYYYYYMDVWGKGTTVTVSS
VL: DIQMTQSPSSLSASVGDRVTITCRASQSISSYLNWYQQKPGKAPKLLIYKASSLESGVPSRFSGSGSGTDFTLTISSLQPEDFATYYCQQSYSAPYTFGPGTKVDIK
notes: as for B3
With B9, in assay [3], the target/OTLA specificity was above 50 ratio.

B10: 09D01 scFv (scFv, V domains shown)
VH: EVQLLESGGGLVQPGGSLRLSCAASGFTFSDYYMSWVRQAPGKGLEWVSGINWHHGSTGYADSVKGRFTISRDNSKNTLYLQMNSLRAEDTAVYYCARVEQGYDIYYYYYMDVWGKGTTVTVSS
VL: DIQMTQSPSSLSASVGDRVTITCRASQSISSYLNWYQQKPGKAPKLLIYKASSLESGVPSRFSGSGSGTDFTLTISSLQPEDFATYYCQQSYSAPYTFGPGTKVDIK
notes: as for B3
As for B10, the target/OTLA specificity in assay [3] is above 50 ratio.

The EC50 is the concentration that produces a half-maximal response.

For the origin of these results see patent publication US20230295305A1 (GRITSTONE BIO, published 2023).
